The conditions of data set [1]: previously reported value, cited from earlier work.
Data set [2] in a line: Fluorescence activation / brightness with DFHBI. It is filed as biochemical. The following applies: for Activation of DFHBI fluorescence: monomeric designs; for Fluorescence brightness, 100 nM DFHBI / Fluorescence brightness, 10 μM DFHBI: normalized 0 to 1 across all three chromophores, average ± SD of two protein concentrations; for Increase in fluorescence of the phenolate form of DFHBI: pH 7.36, versus mFAP2.2. As to the method: (§1) Fluorescence binding assay. Protein-activated DFHBI fluorescence signals were measured in 96-well plate format (Corning 3650) on a Synergy neo2 plate reader (BioTek, Inc) with λex=450 nm or 460 nm and λem=500 nm or 510 nm. Binding reactions were performed at […] in PBS pH7.4 buffer. Protein concentrations were determined by 280 nm absorbance as described above. DFHBI (Lucerna, Inc) were resuspended in DMSO as instructed to make 100 mM stock and diluted in PBS to 0.5-10 μM. Approximate emission spectra were recorded for active designs from 490 to 600 nm.
(§2) Table 3A-C. Brightness and chromophore affinities of selected mFAP variants. Fluorescence brightness measurements at 10 μM (top table) and 100 nM (middle table) chromophore concentrations were normalized from 0 to 1 across all three chromophores (DFHBI, DFHBI-1T, and DFHO), and the normalized values for two protein concentrations tested for each chromophore at each chromophore concentration were averaged and standard deviations of the average computed. Reported values are the normalized averages and standard deviations of the means for each chromophore concentration and each chromophore. Reported relative densitometry values are the relative densitometry values normalized from 0 to 1 and represent how well each design expresses relative to one another in Lemo21(DE3) E. coli cultures. Thermodynamic dissociation constants (bottom table) are obtained by non-linear least squares fitting of chromophore titrations (n=1) to a single binding site isotherm, and values reported with the standard deviation of the fit. Where the obtained Kd values are below the protein concentration tested, the Kd and standard deviation of the fit are reported in parentheses. Values with “N/D” were not determined.

A short description of data set [3]: Circular dichroism, thermal and GuHCl denaturation. Format: physicochemical. The following applies: CD. As to the method: Circular dichroism (CD). Purified protein samples were prepared at 0.5 mg/ml in 20 mM Tris buffer (150 mM NaCl, pH8.0) or PBS buffer (25 mM phosphate, 150 mM NaCl, pH7.4). Wavelength scans from 195 nm to 260 nm were recorded at 25 degrees Celsius, 75 degrees Celsius, 95 degrees Celsius and cooling back to 25 degrees Celsius. Thermal denaturation was monitored at 220 nm or 226 nm from 25 degrees Celsius to 95 degrees Celsius. Near-UV wavelength scan from 240 nm to 320 nm and tryptophan fluorescence emission were recorded in the absence and presence of 5M guanidinium chloride (GuHCl). Chemical denaturation in GuHCl was monitored by both tryptophan fluorescence and near-UV CD signal at 285 nm. The concentration of the GuHCl stock solution was measured with a refractometer (Spectronic Instruments, Inc). Far-UV CD experiments were performed on an AVIV model 420 CD spectrometer (Aviv Biomedical, Inc). Near-UV CD and tryptophan fluorescence experiments were performed on a Jasco J-1500 CD spectrometer (Jasco, Inc). Protein concentrations were determined by 280 nm absorbance with a NanoDrop™spectrophotometer (ThermoScientific, Inc). Melting temperatures were estimated by smoothing the sparse data with a Savitsky-Golay filter of order 3 and approximating the smoothed data with a cubic spline to compute derivatives. Reported Tm values are the inflection points of the melting curves.
On the technique in general: Circular dichroism is the unequal absorption of left and right circularly polarised light.

Data set [4] can be described thus: Photophysical characterization (absorbance, excitation, emission, extinction coefficient, quantum yield). Format: physicochemical.
A short description of data set [5]: Chromophore titration, fit to single binding site isotherm: DFHBI. The following applies: ± SD of the fit. The method, then: as §1, §2
The nature of data set [6]: Chromophore titration, fit to single binding site isotherm: DFHBI-1T. The note with it: n=1 titration; ± SD of the fit; Table 3C. The method, then:
as §2

Data set [7] can be described thus: Chromophore titration, fit to single binding site isotherm: DFHO. The following applies: n=1 titration; ± SD of the fit; Table 3C. The method, then: as §2
Data set [8] in a line: Fluorescence brightness with DFHBI-1T. The note with it: normalized 0 to 1 across all three chromophores; average ± SD of two protein concentrations. Format: biochemical. As to the method:
as §2

Data set [9] can be described thus: Fluorescence brightness with DFHO. It is filed as biochemical. The note with it: normalized 0 to 1 across all three chromophores; average ± SD of two protein concentrations. The method, then:
as §2

[10] abbreviates: n=1 titration, Table 3C, read-out: DFHBI Kd.

Marks after values point to notes of the source that are not given here.

As usually defined, the Kd is a measure of binding affinity in units of concentration.

`CC1=N/C(=C\c2cc(F)c(O)c(F)c2)C(=O)N1CC(F)(F)F` [DFHBI-1T]: in data set [1] (Table 4), the “Extinction Coefficient” value is listed as 35,400^† M^−1 · cm^−1, the λabs is 422^† nm, the λem was 495^† nm and the λex is recorded as 426^† nm. In [1], the “Reported Quantum Yield” value is recorded as 0.00098^†.

B1: b11L5F.2: SEQ ID NO:27; second round design from b11L5F.1 (protein)
chain: MNRAAQLLPGTWQVTMTNEDGQTSQGQMHFQPRSPYTLDIVAQGTISDGRPISGYGKVTVKTPDTMHVNITYPSLGNIKVQGQITLDSPTQFTWNSTTSDGKKLTGTLQRQE
modifications: (1)..(1) optionally absent
In the case of B1, the “Increase of fluorescence, second round of design” value in data set [2] (versus b11L5F.1) is recorded as “approximately 1.4 fold”.

B2: b32: SEQ ID NO:12; monomeric design, activates DFHBI fluorescence (protein)
chain: MGQEVAQVLPGDWQVHMTNEDGQTSTGTVTFQPRSPYTFDVKFKGTMSDGRPITGKGKMTMKTPDTMDIDVTYSDGKKVTGKVTMKSPTQLDWDLTTSDGSKVTGTSHRQE
modifications: (1)..(1) optionally absent
B2: in [3], the Thermal stability entry is reported as “undergo reversible thermal melting transitions”. In addition, in data set [4], the “Absorption peak with DFHBI bound” value came to 450 nm and the “Emission peak with DFHBI bound” value was 510 nm. In [2], the “Activation of DFHBI fluorescence” value is given as “found to activate DFHBI fluorescence”.

B3: b11L5F: SEQ ID NO:25; b11 with a 5-residue fifth turn (protein)
chain: MCRAASLLPGTWQVTMTNEDGQTSQGQMHFQPRSPYTLDVKAQGTISDGRPISGKGKVTCKTPDTMDVDITYPSLGNMKVQGQVTLDSPTQFKFDVTTSDGSKVTGTLQRQE
modifications: (1)..(1) optionally absent
With B3, the “Fluorescence activity in comparison with b11” value in data set [2] (100 μM protein+10 μM DFHBI) turned out to be 5.2 fold. For the same molecule, the “Increase of fluorescence intensity” value in data set [2] (fifth turn changed to a five-residue turn, versus b11) is on record as “fourfold”.

B4: b11L5F.1: SEQ ID NO:26; b11L5F triple mutant 83I_95A_103L without disulfide (protein)
chain: MSRAASLLPGTWQVTMTNEDGQTSQGQMHFQPRSPYTLDVVAQGTISDGRPISGYGKVTVKTPDTMDVDITYPSLGNMKVQGQITLDSPTQFKFDATTSDGSKLTGTLQRQE
modifications: (1)..(1) optionally absent
In the case of B4, the “Higher DFHBI fluorescence” value in data set [2] (substitutions at V103, V95, V83 of b11L5F) is on record as “tenfold”.

B5: b11: SEQ ID NO:4; monomeric design with disulfide bond, activates DFHBI fluorescence (protein)
chain: MCRAASLLPGTWQVTMTNEDGQTSQGQMHFQPRSPYTLDVKAQGTMSDGRPIQGKGKVTCKTPDTMDVDITYSDGKQVQGQVTLDSPTQFKFDVTTSDGSKVTGTLQRQE
modifications: (1)..(1) optionally absent
For B5, the Thermal stability result in data set [3] is “undergo reversible thermal melting transitions”. Further, in data set [4], the “Absorption peak with DFHBI bound” value is given as 450 nm and the “Emission peak with DFHBI bound” value is reported as 510 nm. In data set [2], the “Activation of DFHBI fluorescence” value is “found to activate DFHBI fluorescence”.

B6: mFAP2.3: SEQ ID NO:58 (protein)
chain: MSRAAQLLPGTWQVTMTNEDGQTSQGQMHFQPRSPYTMDVVAQGTISDGRPIVGYGKVTVKTPDTLDVDITYPSLGNIKAQGQITMDSPTQFKFDATTKGENDFHGRLTGTLQRQE
modifications: (1)..(1) optionally absent
In the case of B6, in data set [5] (setting [10]), the equilibrium dissociation constant (Kd) was below 0.5 µM. Further, in data set [5] (obtained Kd below the protein concentration tested, read-out: DFHBI Kd, fit value in parentheses), the equilibrium dissociation constant (Kd) amounted to 0.146 µM. The molecule also came in with a dissociation constant (Kd) in [6] of 1.58 ± 0.34 µM. Besides, the dissociation constant (Kd) in [7] worked out at 10.4 ± 3.59 µM. In data set [2], the “Fluorescence brightness, 100 nM DFHBI” value amounted to 0.15 ± 0.0; the “Fluorescence brightness, 10 μM DFHBI” value is listed as 0.2 ± 0.03; the “Increase in fluorescence of the phenolate form of DFHBI” value is given as around 1.1 fold. Moreover, in [8], the “Fluorescence brightness, 100 nM DFHBI-1T” value is recorded as 0.52 ± 0.02 and the “Fluorescence brightness, 10 μM DFHBI-1T” value worked out at 0.67 ± 0.04. Further, in [9], the “Fluorescence brightness, 100 nM DFHO” value is on record as 0.02 ± 0.0 and the “Fluorescence brightness, 10 μM DFHO” value is on record as 0.01 ± 0.0.

B7: mFAP2.4: SEQ ID NO:59 (protein)
chain: MSRAAQLLPGTWQVTMTNEDGQTSQGQMHFQPRSPYTMDIVAQGTISDGRPIVGYGKATVKTPDTLDVDITYPSLGNIKAQGQITMDSPTQFKFDATTKGAGNFTGRLTGTLQRQE
modifications: (1)..(1) optionally absent
Regarding B7, the Kd in [5] (setting [10]) is 1.31 ± 0.1 µM. This molecule also gave an equilibrium dissociation constant (Kd) in [6] of 38.7 ± 5.71 µM. In data set [7], this molecule registered a Kd of 32.7 ± 14.2 µM. Also, in data set [2], the “Fluorescence brightness, 100 nM DFHBI” value was found to be 0.69 ± 0.03; the “Fluorescence brightness, 10 μM DFHBI” value stood at 0.69 ± 0.06; the “Increase in fluorescence of the phenolate form of DFHBI” value is around 3.4 fold. Also, in data set [8], the “Fluorescence brightness, 100 nM DFHBI-1T” value came out at 0.01 ± 0.0 and the “Fluorescence brightness, 10 μM DFHBI-1T” value turned out to be 0.01 ± 0.0. Further, in data set [9], the “Fluorescence brightness, 100 nM DFHO” value stood at 0.01 ± 0.0 and the “Fluorescence brightness, 10 μM DFHO” value amounted to 0.0 ± 0.0.

B8: mFAP2.5: SEQ ID NO:60; mutations of mFAP2.3 and mFAP2.4 combined (protein)
chain: MSRAAQLLPGTWQVTMTNEDGQTSQGQWHFQPRSPYTMDIVAQGTISDGRPIVGYGKATVKTPDTLDVDITYPSLGNIKAQGQITMDSPTQFKWDATTKGENDFHGRLTGTLQRQE
modifications: (1)..(1) optionally absent
Consider B8, for which the Kd in data set [5] (setting [10]) stood at 1.13 ± 0.09 µM. This molecule also registered an equilibrium dissociation constant (Kd) in data set [6] of 52.5 ± 7.48 µM. Also, in data set [7], the dissociation constant Kd amounted to 34.2 ± 13.7 µM. In data set [2], the “Fluorescence brightness, 100 nM DFHBI” value was determined as 0.83 ± 0.02 and the “Fluorescence brightness, 10 μM DFHBI” value was determined as 0.8 ± 0.03. In data set [8], the “Fluorescence brightness, 100 nM DFHBI-1T” value came to 0.01 ± 0.0 and the “Fluorescence brightness, 10 μM DFHBI-1T” value was 0.01 ± 0.0. Further, in [9], the “Fluorescence brightness, 100 nM DFHO” value came to 0.01 ± 0.0 and the “Fluorescence brightness, 10 μM DFHO” value amounted to 0.0 ± 0.0.

Source of the values: patent US20210047373A1, “BETA BARREL POLYPEPTIDES AND METHODS FOR THEIR USE” (UNIVERSITY OF WASHINGTON, priority 2018, published 2021).
